Reference: article PMC9951844 (2023)

Columns and labels:
SARS-CoV-2 wildtype RBD [1] = molecular target: T1, SARS-CoV-2 wildtype RBD (SARS-CoV-2, UniProt P0DTC2 332-527); experiment: BLI
SARS-CoV-2 wildtype RBD [2] = molecular target: T1, SARS-CoV-2 wildtype RBD; experiment: BLI; remark: listed apart in the source

Row | Binder | koff (SARS-CoV-2 wildtype RBD [1]) [s⁻¹] | Kd (SARS-CoV-2 wildtype RBD [2]) [pM]
1 | YB13-292 IgG (antibody, V domains shown) VH: EVQLVESGGGLVKPGGSLRLSCAASGFSFITYNMNWVRQAPGKGLEWVSSISSNILSSTSYIYYADSVKGRFTISRDDAANSLFLQMNSLRVEDTAQYYCARTRSRSVRNCTSATCPVDAFDLWGQGTMVIVSS VL: DIVLTQSPLSLPVTPGEPASISCRSSQSLLRSNGYNYLDWYLQKPGQSPHLLIYLGSNRASGVPDRFSGSGSGTDFTLKISRVEAEDVGVYYCMQALQTPYTFGQGTNLEIK | 0.000197 | 390
2 | YB9-258 IgG (antibody, V domains shown) VH: EVQLVESGGGLIQPGGSLRLSCAASGLTVSSNYMHWVRQAPGKGLEWVSVLYAGGSAFYADSVKGRFTISRNNSKNTLYLQMNSLRAEDTAIYYCARGLGDYLDSWGQGTLVTVSS VL: DIQMTQSPSSVSASVGDRVTITCRASQGIGSWLAWYQQKPGKAPQLLIYAASTLQSGVPPRFSGSGSGTDFTLTITSLQPEDFASYYCQQANSVLALTFGGGTKVEIK | 7.7e-05 | 630
